Four molecules from patent US20230250154A1 can be followed below.

The experiment has as its target Protease Mixtures. The experiment can be described thus: cell-based or functional assay.

B1: Variant A2M, bait region SEQ ID NO 134, P01023 24-1474 (protein)
chain: SVSGKPQYMVLVPSLLHTETTEKGCVLLSYLNETVTVSASLESVRGNRSLFTDLEAENDVLHCVAFAVPKSSSNEEVMFLTVQVKGPTQEFKKRTTVMVKNEDSLVFVQTDKSIYKPGQTVKFRVVSMDENFHPLNELIPLVYIQDPKGNRIAQWQSFQLEGGLKQFSFPLSSEPFQGSYKVVVQKKSGGRTEHPFTVEEFVLPKFEVQVTVPKIITILEEEMNVSVCGLYTYGKPVPGHVTVSICRKYSDASDCHGEDSQAFCEKFSGQLNSHGCFYQQVKTKVFQLKRKEYEMKLHTEAQIQEEGTVVELTGRQSSEITRTITKLSFVKVDSHFRQGIPFFGQVRLVDGKGVPIPNKVIFIRGNEANYYSNATTDEHGLVQFSINTTNVMGTSLTVRVNYKDRSPCYGYQWVSEEHEEAHHTAYLVFSPSKSFVHLEPMSHELPCGHTQTVQAHYILNGGTLLGLKKLSFYYLIMAKGGIVRTGTHGLLVKQEDMKGHFSISIPVKSDIAPVARLLIYAVLPTGDVIGDSAKYDVENCLANKVDLSFSPSQSLPASHAHLRVTAAPQSVCALRAVDQSVLLMKPDAELSASSVYNLLPEKDLTGFPGPLNDQDDEDCINRHNVYINGITYTPVSSTNEKDMYSFLEDMGLKAFTNSKIRKPKMCPQLEQYEMHGPSELEGRGSIPENFFGVKEEEGLGSSEDLVVQIVEEPHTKLRKYFPETWIWDLVVVNSAGVAEVGVTVPDTITEWKAGAFCLSEDAGLGISSTASLRAFQPFFVELTMPYSVIRGEAFTLKATVLNYLPKCIRVSVQLEASPAFLAVPVEKEQAPHCICANGRQTVSWAVTPKSLGNVNFTVSAEALESQELCGTEVPSVPEHGRKDTVIKPLLVEPEGLEKETTFNSLLCPSGGEVSEELSLKLPPNVVEESARASVSVLGDILGSAMQNTQNLLQMPYGCGEQNMVLFAPNIYVLDYLNETQQLTPEIKSKAIGYLNTGYQRQLNYKHYDGSYSTFGERYGRNQGNTWLTAFVLKTFAQARAYIFIDEAHITQALIWLSQRQKDNGCFRSSGSLLNNAIKGGVEDEVTLSAYITIALLEIPLTVTHPVVRNALFCLESAWKTAQEGDHGSHVYTKALLAYAFALAGNQDKRKEVLKSLNEEAVKKDNSVHWERPQKPKAPVGHFYEPQAPSAEVEMTSYVLLAYLTAQPAPTSEDLTSATNIVKWITKQQNAQGGFSSTQDTVVALHALSKYGAATFTRTGKAAQVTIQSSGTFSSKFQVDNNNRLLLQQVSLPELPGEYSMKVTGEGCVYLQTSLKYNILPEKEEFPFALGVQTLPQTCDEPKAHTSFQISLSVSYTGSRSASNMAIVDVKMVSGFIPLKPTVKMLERSNHVSRTEVSSNHVLIYLDKVSNQTLSLFFTVLQDVPVRDLKPAIVKVYDYYETDEFAIAEYNAPCSKDLGNADYKDDDDKGASHHHHHH
As to B1, the Protease Inhibition (% of WT); Protease Mixtures, IGD Substrate is 220 % of WT.

B2: Variant A2M, bait region SEQ ID NO 133, P01023 24-1474 (protein)
chain: SVSGKPQYMVLVPSLLHTETTEKGCVLLSYLNETVTVSASLESVRGNRSLFTDLEAENDVLHCVAFAVPKSSSNEEVMFLTVQVKGPTQEFKKRTTVMVKNEDSLVFVQTDKSIYKPGQTVKFRVVSMDENFHPLNELIPLVYIQDPKGNRIAQWQSFQLEGGLKQFSFPLSSEPFQGSYKVVVQKKSGGRTEHPFTVEEFVLPKFEVQVTVPKIITILEEEMNVSVCGLYTYGKPVPGHVTVSICRKYSDASDCHGEDSQAFCEKFSGQLNSHGCFYQQVKTKVFQLKRKEYEMKLHTEAQIQEEGTVVELTGRQSSEITRTITKLSFVKVDSHFRQGIPFFGQVRLVDGKGVPIPNKVIFIRGNEANYYSNATTDEHGLVQFSINTTNVMGTSLTVRVNYKDRSPCYGYQWVSEEHEEAHHTAYLVFSPSKSFVHLEPMSHELPCGHTQTVQAHYILNGGTLLGLKKLSFYYLIMAKGGIVRTGTHGLLVKQEDMKGHFSISIPVKSDIAPVARLLIYAVLPTGDVIGDSAKYDVENCLANKVDLSFSPSQSLPASHAHLRVTAAPQSVCALRAVDQSVLLMKPDAELSASSVYNLLPEKDLTGFPGPLNDQDDEDCINRHNVYINGITYTPVSSTNEKDMYSFLEDMGLKAFTNSKIRKPKMCPQLEQYEMHGPIPENFFGVEGEGEGESELEGRGSSEDLVVQIVEEPHTKLRKYFPETWIWDLVVVNSAGVAEVGVTVPDTITEWKAGAFCLSEDAGLGISSTASLRAFQPFFVELTMPYSVIRGEAFTLKATVLNYLPKCIRVSVQLEASPAFLAVPVEKEQAPHCICANGRQTVSWAVTPKSLGNVNFTVSAEALESQELCGTEVPSVPEHGRKDTVIKPLLVEPEGLEKETTFNSLLCPSGGEVSEELSLKLPPNVVEESARASVSVLGDILGSAMQNTQNLLQMPYGCGEQNMVLFAPNIYVLDYLNETQQLTPEIKSKAIGYLNTGYQRQLNYKHYDGSYSTFGERYGRNQGNTWLTAFVLKTFAQARAYIFIDEAHITQALIWLSQRQKDNGCFRSSGSLLNNAIKGGVEDEVTLSAYITIALLEIPLTVTHPVVRNALFCLESAWKTAQEGDHGSHVYTKALLAYAFALAGNQDKRKEVLKSLNEEAVKKDNSVHWERPQKPKAPVGHFYEPQAPSAEVEMTSYVLLAYLTAQPAPTSEDLTSATNIVKWITKQQNAQGGFSSTQDTVVALHALSKYGAATFTRTGKAAQVTIQSSGTFSSKFQVDNNNRLLLQQVSLPELPGEYSMKVTGEGCVYLQTSLKYNILPEKEEFPFALGVQTLPQTCDEPKAHTSFQISLSVSYTGSRSASNMAIVDVKMVSGFIPLKPTVKMLERSNHVSRTEVSSNHVLIYLDKVSNQTLSLFFTVLQDVPVRDLKPAIVKVYDYYETDEFAIAEYNAPCSKDLGNADYKDDDDKGASHHHHHH
As to B2, the Protease Inhibition (% of WT); Protease Mixtures, IGD Substrate was 75 % of WT.

B3: Variant A2M, bait region SEQ ID NO 135, P01023 24-1474 (protein)
chain: SVSGKPQYMVLVPSLLHTETTEKGCVLLSYLNETVTVSASLESVRGNRSLFTDLEAENDVLHCVAFAVPKSSSNEEVMFLTVQVKGPTQEFKKRTTVMVKNEDSLVFVQTDKSIYKPGQTVKFRVVSMDENFHPLNELIPLVYIQDPKGNRIAQWQSFQLEGGLKQFSFPLSSEPFQGSYKVVVQKKSGGRTEHPFTVEEFVLPKFEVQVTVPKIITILEEEMNVSVCGLYTYGKPVPGHVTVSICRKYSDASDCHGEDSQAFCEKFSGQLNSHGCFYQQVKTKVFQLKRKEYEMKLHTEAQIQEEGTVVELTGRQSSEITRTITKLSFVKVDSHFRQGIPFFGQVRLVDGKGVPIPNKVIFIRGNEANYYSNATTDEHGLVQFSINTTNVMGTSLTVRVNYKDRSPCYGYQWVSEEHEEAHHTAYLVFSPSKSFVHLEPMSHELPCGHTQTVQAHYILNGGTLLGLKKLSFYYLIMAKGGIVRTGTHGLLVKQEDMKGHFSISIPVKSDIAPVARLLIYAVLPTGDVIGDSAKYDVENCLANKVDLSFSPSQSLPASHAHLRVTAAPQSVCALRAVDQSVLLMKPDAELSASSVYNLLPEKDLTGFPGPLNDQDDEDCINRHNVYINGITYTPVSSTNEKDMYSFLEDMGLKAFTNSKIRKPKMCPQLEQYEMHGPIPENFFGVSELEGRGSSEDLVVQIKEEEGLGSVEEPHTKLRKYFPETWIWDLVVVNSAGVAEVGVTVPDTITEWKAGAFCLSEDAGLGISSTASLRAFQPFFVELTMPYSVIRGEAFTLKATVLNYLPKCIRVSVQLEASPAFLAVPVEKEQAPHCICANGRQTVSWAVTPKSLGNVNFTVSAEALESQELCGTEVPSVPEHGRKDTVIKPLLVEPEGLEKETTFNSLLCPSGGEVSEELSLKLPPNVVEESARASVSVLGDILGSAMQNTQNLLQMPYGCGEQNMVLFAPNIYVLDYLNETQQLTPEIKSKAIGYLNTGYQRQLNYKHYDGSYSTFGERYGRNQGNTWLTAFVLKTFAQARAYIFIDEAHITQALIWLSQRQKDNGCFRSSGSLLNNAIKGGVEDEVTLSAYITIALLEIPLTVTHPVVRNALFCLESAWKTAQEGDHGSHVYTKALLAYAFALAGNQDKRKEVLKSLNEEAVKKDNSVHWERPQKPKAPVGHFYEPQAPSAEVEMTSYVLLAYLTAQPAPTSEDLTSATNIVKWITKQQNAQGGFSSTQDTVVALHALSKYGAATFTRTGKAAQVTIQSSGTFSSKFQVDNNNRLLLQQVSLPELPGEYSMKVTGEGCVYLQTSLKYNILPEKEEFPFALGVQTLPQTCDEPKAHTSFQISLSVSYTGSRSASNMAIVDVKMVSGFIPLKPTVKMLERSNHVSRTEVSSNHVLIYLDKVSNQTLSLFFTVLQDVPVRDLKPAIVKVYDYYETDEFAIAEYNAPCSKDLGNADYKDDDDKGASHHHHHH
Turning to B3, the Protease Inhibition (% of WT); Protease Mixtures, IGD Substrate was 140 % of WT.

B4: Variant A2M, bait region SEQ ID NO 132, P01023 24-1474 (protein)
chain: SVSGKPQYMVLVPSLLHTETTEKGCVLLSYLNETVTVSASLESVRGNRSLFTDLEAENDVLHCVAFAVPKSSSNEEVMFLTVQVKGPTQEFKKRTTVMVKNEDSLVFVQTDKSIYKPGQTVKFRVVSMDENFHPLNELIPLVYIQDPKGNRIAQWQSFQLEGGLKQFSFPLSSEPFQGSYKVVVQKKSGGRTEHPFTVEEFVLPKFEVQVTVPKIITILEEEMNVSVCGLYTYGKPVPGHVTVSICRKYSDASDCHGEDSQAFCEKFSGQLNSHGCFYQQVKTKVFQLKRKEYEMKLHTEAQIQEEGTVVELTGRQSSEITRTITKLSFVKVDSHFRQGIPFFGQVRLVDGKGVPIPNKVIFIRGNEANYYSNATTDEHGLVQFSINTTNVMGTSLTVRVNYKDRSPCYGYQWVSEEHEEAHHTAYLVFSPSKSFVHLEPMSHELPCGHTQTVQAHYILNGGTLLGLKKLSFYYLIMAKGGIVRTGTHGLLVKQEDMKGHFSISIPVKSDIAPVARLLIYAVLPTGDVIGDSAKYDVENCLANKVDLSFSPSQSLPASHAHLRVTAAPQSVCALRAVDQSVLLMKPDAELSASSVYNLLPEKDLTGFPGPLNDQDDEDCINRHNVYINGITYTPVSSTNEKDMYSFLEDMGLKAFTNSKIRKPKMCPQLEQYEMHGPEGEGEGEGIPENFFGVSELEGRGSSEDLVVQIVEEPHTKLRKYFPETWIWDLVVVNSAGVAEVGVTVPDTITEWKAGAFCLSEDAGLGISSTASLRAFQPFFVELTMPYSVIRGEAFTLKATVLNYLPKCIRVSVQLEASPAFLAVPVEKEQAPHCICANGRQTVSWAVTPKSLGNVNFTVSAEALESQELCGTEVPSVPEHGRKDTVIKPLLVEPEGLEKETTFNSLLCPSGGEVSEELSLKLPPNVVEESARASVSVLGDILGSAMQNTQNLLQMPYGCGEQNMVLFAPNIYVLDYLNETQQLTPEIKSKAIGYLNTGYQRQLNYKHYDGSYSTFGERYGRNQGNTWLTAFVLKTFAQARAYIFIDEAHITQALIWLSQRQKDNGCFRSSGSLLNNAIKGGVEDEVTLSAYITIALLEIPLTVTHPVVRNALFCLESAWKTAQEGDHGSHVYTKALLAYAFALAGNQDKRKEVLKSLNEEAVKKDNSVHWERPQKPKAPVGHFYEPQAPSAEVEMTSYVLLAYLTAQPAPTSEDLTSATNIVKWITKQQNAQGGFSSTQDTVVALHALSKYGAATFTRTGKAAQVTIQSSGTFSSKFQVDNNNRLLLQQVSLPELPGEYSMKVTGEGCVYLQTSLKYNILPEKEEFPFALGVQTLPQTCDEPKAHTSFQISLSVSYTGSRSASNMAIVDVKMVSGFIPLKPTVKMLERSNHVSRTEVSSNHVLIYLDKVSNQTLSLFFTVLQDVPVRDLKPAIVKVYDYYETDEFAIAEYNAPCSKDLGNADYKDDDDKGASHHHHHH
Take B4: the Protease Inhibition (% of WT); Protease Mixtures, Collagen Substrate was 120 % of WT and the Protease Inhibition (% of WT); Protease Mixtures, IGD Substrate is 243 % of WT.
